Test results: patent publication US20090123479A1 (published 2009)

Tests used:
recombinant human IL-23 [1] = biological target: T1, recombinant human IL-23 (human, UniProt Q9NPF7 20-189; P29460 23-328); test: sandwich ELISA (optimised protocol, OD450): plate coated with anti-human IL-12, antibody pre-incubated with constant human IL-23, bound antibody detected with anti-human IgG gamma chain HRP; purified antibody
T1 construct: also called hIL-23
T1 sequence 1: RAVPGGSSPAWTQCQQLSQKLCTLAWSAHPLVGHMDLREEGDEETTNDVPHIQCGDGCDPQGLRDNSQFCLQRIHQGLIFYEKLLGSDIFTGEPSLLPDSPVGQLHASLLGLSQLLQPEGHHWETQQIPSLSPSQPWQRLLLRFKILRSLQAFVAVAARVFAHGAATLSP
T1 sequence 2: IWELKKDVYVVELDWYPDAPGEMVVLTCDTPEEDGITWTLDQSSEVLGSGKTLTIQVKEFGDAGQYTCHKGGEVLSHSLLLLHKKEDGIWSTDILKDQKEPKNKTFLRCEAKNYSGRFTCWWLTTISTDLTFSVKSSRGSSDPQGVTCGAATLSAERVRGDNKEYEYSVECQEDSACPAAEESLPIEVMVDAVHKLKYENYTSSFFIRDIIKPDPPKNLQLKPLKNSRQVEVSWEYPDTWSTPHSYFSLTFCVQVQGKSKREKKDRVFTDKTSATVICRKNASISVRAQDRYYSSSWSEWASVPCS
Experimental: Optimised assay conditions: Plates were coated with anti human IL12 at 2 μg/diluent (phosphate buffered saline). 50 μl/well of this mixture was incubated overnight at 4° C. The plates were then washed three times with Phosphate Buffered Saline with 0.05% Tween 20 (PBST). Plates were blocked with 4% skim milk powder (Fluka BioChemika #70166) PBS 200 μl/well for a minimum of 1 hour at room temperature. The plates were then washed three times with Phosphate Buffered Saline+0.05% Tween 20 (PBST). Various concentrations of antibody were incubated in a separate plate with a constant concentration of IL-23 for 1 hour at room temperature. 50 ul of each mixture were transferred to the assay plate and incubated at RT for 1 hr. They were then washed three times with Phosphate Buffered Saline+0.05% Tween 20 (PBST). […] 50 μl/well of the detection antibody was added and incubated at RT for 1 hour. The plates were then washed three times with Phosphate Buffered Saline+0.05% Tween 20 (PBST). 50 μl/well of TMB was added to the plates and incubated at RT for 10 min. 50 μl/well of 1 MH₂SO₄ was added. The plate was read at OD450 nm using the SOftmaxPRO versamax plate reader.

recombinant human IL-23 [2] = biological target: T1, recombinant human IL-23; test: IL-23/IL-23R inhibition ELISA (first protocol, OD490): plate coated with human IL23R Fc chimera, antibody pre-incubated with constant human IL-23, bound IL-23 detected with biotinylated anti-human IL-12; tissue culture supernatant
Experimental: Chimeric and humanized mAbs were assessed for their ability to neutralise human IL-23 binding to human IL-23 receptor, and cyno IL23 binding to human IL23 receptor. Plates were coated with human IL23R Fc chimera at 1 μg/diluent (bicarbonate buffer). 50 μl/well of this mixture was incubated overnight at 4° C. The plates were then washed twice with Tris Buffered Saline with 0.05% Tween 20 (TBST). Plates were blocked with 1% BSA TBST 100 μl/well for a minimum of 1 hour at room temperature. The plates were then washed twice with Tris Buffered Saline with 0.05% Tween 20 (TBST). Various concentrations of antibody were incubated in a separate plate with a constant concentration of IL-23 for 1 hour at room temperature. 50 ul of each mixture were transferred to the assay plate and incubated at RT for 1 hr. They were then washed twice with Tris Buffered Saline with 0.05% Tween 20 (TBST). Bound IL23 was detected by anti human 1L12 Biotin labelled Ab (R&D systems BAF219) diluted to 100 ng/ml in 1% BSA TBST. 50 μl/well of the biotinylated antibody was added and incubated at RT for 1 hour. The plates were then washed twice with Tris Buffered Saline with 0.05% Tween 20 (TBST). ExtrAvidin-Peroxidase (Sigma E2886) was diluted 1/1000 in 1% BSA TBST, 50 μl/well was added to the plates. […] The plate was read at OD490 nm using the SOftmaxPRO versamax plate reader.

recombinant human IL-23 [3] = biological target: T1, recombinant human IL-23; test: SPR (Biacore 3000), purified antibody captured on Protein A or anti-human IgG, IL-23 analyte at 256, 64, 16, 4 nM
Experimental: (§1) Protein A or an anti-human IgG (Biacore BR-1008-39) was immobilised on a Biacore CM5 chip by primary amine coupling in accordance with the manufacturer's instructions. Anti IL-23 antibodies were captured on this surface and after a period of stabilisation, […] was passed over the antibody captured surface and a binding sensorgram was obtained. […] All runs were double referenced with a buffer injection over the captured antibody surface. Data was analysed using the 1:1 model using the software inherent to the Biacore 3000 or T100 depending upon which machine was used to generate kinetics. Analysis was carried out at 25° C. using HBS-EP buffer. Data presented in Tables 3-6 are on tissue culture supernatants of CHO cells transiently expressing the antibody of interest unless otherwise indicated. Data was generated using concentrations of IL-23 (256, 64, 16, 4, 1 and 0.25 nM) The data shown for the humanized variants is representative of a number of runs, The chimeric mAb (8C9H6.HC1LC1) was only run once in each experiment, so data shown for this mAb is from that one run, […]

recombinant human IL-23 [4] = biological target: T1, recombinant human IL-23; test: SPR (Biacore T100), CHO supernatant antibody captured on Protein A or anti-human IgG, IL-23 analyte at 10 concentrations 128-0.25 nM
Experimental: as §1, with “indicated.” for “indicated. Data was generated using concentrations of IL-23 (256, 64, 16, 4, 1 and 0.25 nM) The data shown for the humanized variants is representative of a number of runs, The chimeric mAb (8C9H6.HC1LC1) was only run once in each experiment, so data shown for this mAb is from that one run,”

- EC50 (read off the curve) (recombinant human IL-23 [1]): ~0.06 nM
- IC50 (read off the curve) (recombinant human IL-23 [2]): ~6 ng/mL
- Kd (recombinant human IL-23 [3]): 1.8 nM
- koff (recombinant human IL-23 [3]): 0.00044 s⁻¹
- kon (recombinant human IL-23 [3]): 240000 M⁻¹ s⁻¹
- Kd (recombinant human IL-23 [4]): 0.91 nM
- koff (recombinant human IL-23 [4]): 0.00029 s⁻¹
- kon (recombinant human IL-23 [4]): 320000 M⁻¹ s⁻¹
B1: chimeric 8C92H6 HC1LC1 (antibody, V domains shown)
VH: QVQLQQSGAELARPGTSVKLSCKASGYTFTSYGITWVKQRTGQGLEWIGENYPRSGNTYYNEKFKGKATLTADKSSSTAYMELRSLTSEDSAVYFCARCEFISTVVAPYYYALDYWGQGTSLVTVS
VL: DIVLTQSPASLAVSLGQKATISCKASKKVTIFGSISALHWYQQKPGQPPKLIYNGAKLESGVSARFSDSGSQNRSPFGNQLSFTLTIDPVEADDAATYYCLQNKEVPYTFGGGTKLEIKR
notes: Murine variable regions with human constant regions; also called 8C92H6.HC1LC1 Chimera; 8C9 chimera
